Measurements published in the supplement of paper PMC9876800.

system: peptide library, one residue held at a place counted from the S/T acceptor; experiment: relative phosphorylation of the sub-library (ratio to the mean residue at this position); human; higher = residue favoured; conditions: G fixed; at -3
Outline: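 Spots on streptavidin membranes were phosphorimaged and quantified by densitometry to measure phosphorylation of biotinylated degenerate peptide sub-libraries by purified recombinant kinases, human or orthologue constructs. The reactions ran in 384-well plates for 90 min under kinase-specific conditions, with peptides at 50 μM and 50 μM ATP spiked with γ-32P-ATP. Relative sub-library phosphorylation is the ratio to the mean residue at that position.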

Sequence of CIT, construct: aa1-449 (O14578 1-449, looked up): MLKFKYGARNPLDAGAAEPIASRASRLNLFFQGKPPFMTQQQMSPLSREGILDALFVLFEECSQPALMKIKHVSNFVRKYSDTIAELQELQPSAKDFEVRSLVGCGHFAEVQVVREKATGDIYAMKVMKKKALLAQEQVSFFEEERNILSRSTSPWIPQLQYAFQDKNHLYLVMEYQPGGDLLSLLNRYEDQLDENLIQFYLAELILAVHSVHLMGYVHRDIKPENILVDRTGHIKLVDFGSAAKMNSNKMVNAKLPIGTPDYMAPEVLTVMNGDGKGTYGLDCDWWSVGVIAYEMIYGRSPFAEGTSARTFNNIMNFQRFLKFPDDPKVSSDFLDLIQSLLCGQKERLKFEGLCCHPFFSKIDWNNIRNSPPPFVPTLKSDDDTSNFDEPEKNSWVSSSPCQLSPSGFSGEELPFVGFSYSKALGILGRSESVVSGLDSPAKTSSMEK
Sequence of TSSK1B, construct: Full length (Q9BXA7 whole entry, looked up): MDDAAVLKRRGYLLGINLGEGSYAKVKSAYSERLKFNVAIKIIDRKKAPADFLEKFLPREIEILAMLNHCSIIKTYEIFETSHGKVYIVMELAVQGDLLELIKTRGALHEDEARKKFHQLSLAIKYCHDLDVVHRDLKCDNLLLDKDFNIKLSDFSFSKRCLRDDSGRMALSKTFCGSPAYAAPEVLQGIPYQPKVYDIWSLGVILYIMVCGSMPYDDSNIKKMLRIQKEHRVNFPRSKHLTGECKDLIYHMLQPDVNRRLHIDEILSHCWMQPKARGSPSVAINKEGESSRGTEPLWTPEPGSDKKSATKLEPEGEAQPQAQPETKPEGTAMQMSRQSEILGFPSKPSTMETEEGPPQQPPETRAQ
Sequence of CSNK1G3, construct: Full length (Q9Y6M4 whole entry, looked up): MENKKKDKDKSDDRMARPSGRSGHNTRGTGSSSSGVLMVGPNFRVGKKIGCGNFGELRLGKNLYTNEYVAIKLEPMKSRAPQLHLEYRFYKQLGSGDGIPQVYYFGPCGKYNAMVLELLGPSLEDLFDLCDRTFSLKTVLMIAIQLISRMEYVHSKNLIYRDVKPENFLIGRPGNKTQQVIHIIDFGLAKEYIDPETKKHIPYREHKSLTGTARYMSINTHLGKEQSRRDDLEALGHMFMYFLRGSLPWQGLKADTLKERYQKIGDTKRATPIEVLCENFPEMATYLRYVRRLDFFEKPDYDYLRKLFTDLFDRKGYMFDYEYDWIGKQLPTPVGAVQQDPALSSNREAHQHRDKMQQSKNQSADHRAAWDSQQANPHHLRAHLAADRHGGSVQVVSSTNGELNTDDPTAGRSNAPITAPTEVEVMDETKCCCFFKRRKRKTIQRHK
Sequence of CAMK2D, construct: Full length (Q13557 whole entry, looked up): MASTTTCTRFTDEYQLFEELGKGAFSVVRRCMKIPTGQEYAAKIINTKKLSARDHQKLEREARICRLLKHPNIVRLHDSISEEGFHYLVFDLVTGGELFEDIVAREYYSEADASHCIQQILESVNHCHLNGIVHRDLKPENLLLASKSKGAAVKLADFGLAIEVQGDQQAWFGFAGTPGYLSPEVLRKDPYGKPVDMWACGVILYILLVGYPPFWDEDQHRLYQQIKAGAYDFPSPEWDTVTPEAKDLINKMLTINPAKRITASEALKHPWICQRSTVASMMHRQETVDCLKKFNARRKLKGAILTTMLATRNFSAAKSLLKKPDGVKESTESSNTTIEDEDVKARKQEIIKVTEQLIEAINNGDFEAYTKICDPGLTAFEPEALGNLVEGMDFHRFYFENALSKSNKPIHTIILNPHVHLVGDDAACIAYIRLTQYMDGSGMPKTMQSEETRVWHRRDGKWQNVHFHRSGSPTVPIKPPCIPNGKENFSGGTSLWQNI
Sequence of PAK1, construct: aa150-end (Q13153 150-545, looked up): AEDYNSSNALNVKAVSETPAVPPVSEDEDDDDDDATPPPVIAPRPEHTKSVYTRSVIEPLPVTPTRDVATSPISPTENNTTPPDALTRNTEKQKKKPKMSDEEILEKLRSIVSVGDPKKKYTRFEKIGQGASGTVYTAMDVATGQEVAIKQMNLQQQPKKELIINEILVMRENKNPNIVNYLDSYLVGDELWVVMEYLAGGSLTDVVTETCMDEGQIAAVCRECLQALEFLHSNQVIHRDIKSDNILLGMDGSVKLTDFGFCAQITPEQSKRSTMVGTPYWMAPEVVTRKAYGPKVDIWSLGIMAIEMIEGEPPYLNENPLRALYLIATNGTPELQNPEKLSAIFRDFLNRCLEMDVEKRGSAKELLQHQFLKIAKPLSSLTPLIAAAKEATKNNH
Sequence of CDKL1, construct: aa2-304 (Q00532 2-304, looked up): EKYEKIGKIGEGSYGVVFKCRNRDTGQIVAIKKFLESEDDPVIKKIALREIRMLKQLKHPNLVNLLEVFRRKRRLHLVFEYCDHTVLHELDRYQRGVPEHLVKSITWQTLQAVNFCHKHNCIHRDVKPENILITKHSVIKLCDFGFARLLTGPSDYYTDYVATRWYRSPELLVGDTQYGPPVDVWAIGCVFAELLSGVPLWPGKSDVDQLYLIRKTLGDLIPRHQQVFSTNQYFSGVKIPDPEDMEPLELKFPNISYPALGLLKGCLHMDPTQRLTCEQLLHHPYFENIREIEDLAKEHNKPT
Sequence of ACVR1B, construct: aa150-end (P36896 150-505, looked up): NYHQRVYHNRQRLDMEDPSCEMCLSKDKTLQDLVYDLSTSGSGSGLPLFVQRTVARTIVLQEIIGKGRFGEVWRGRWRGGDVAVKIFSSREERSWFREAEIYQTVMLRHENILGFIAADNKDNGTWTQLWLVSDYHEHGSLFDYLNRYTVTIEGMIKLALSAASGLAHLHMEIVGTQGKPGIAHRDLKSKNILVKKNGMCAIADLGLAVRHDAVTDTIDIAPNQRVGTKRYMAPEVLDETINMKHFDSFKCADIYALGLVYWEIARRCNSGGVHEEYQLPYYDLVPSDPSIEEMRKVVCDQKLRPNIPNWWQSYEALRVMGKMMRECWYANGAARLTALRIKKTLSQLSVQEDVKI
Sequence of CSNK1A1L, construct: Full length (Q8N752 whole entry, looked up): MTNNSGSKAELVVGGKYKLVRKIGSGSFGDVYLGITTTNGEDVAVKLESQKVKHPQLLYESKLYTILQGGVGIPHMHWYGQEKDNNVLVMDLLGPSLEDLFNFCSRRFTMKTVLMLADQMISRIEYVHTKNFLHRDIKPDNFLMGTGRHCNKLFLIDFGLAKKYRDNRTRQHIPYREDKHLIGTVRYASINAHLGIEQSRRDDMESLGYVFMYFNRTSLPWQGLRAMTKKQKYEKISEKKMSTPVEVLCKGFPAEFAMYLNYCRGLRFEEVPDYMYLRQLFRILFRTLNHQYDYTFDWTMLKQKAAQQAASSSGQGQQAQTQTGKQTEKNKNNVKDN

| Substance | relative phosphorylation |
| --- | --- |
| CSNK1A1L, construct: Full length (from UniProt Q8N752) | 0.778 |
| CSNK1G3, construct: Full length (from UniProt Q9Y6M4) | 0.475 |

same assay, conditions: G fixed; at -4

| Substance | relative phosphorylation |
| --- | --- |
| CIT, construct: aa1-449 (from UniProt O14578) | 0.931 |
| PAK1, construct: aa150-end (from UniProt Q13153) | 1.4 |
| CAMK2D, construct: Full length (from UniProt Q13557) | 1.03 |
| CDKL1, construct: aa2-304 (from UniProt Q00532) | 1.01 |
| ACVR1B, construct: aa150-end (from UniProt P36896) | 1.03 |
| TSSK1B, construct: Full length (from UniProt Q9BXA7) | 1.29 |
| CSNK1A1L, construct: Full length (from UniProt Q8N752) | 0.948 |
| CSNK1G3, construct: Full length (from UniProt Q9Y6M4) | 0.818 |

same assay, conditions: G fixed; at -5

| Substance | relative phosphorylation |
| --- | --- |
| CIT, construct: aa1-449 (from UniProt O14578) | 0.498 |
| PAK1, construct: aa150-end (from UniProt Q13153) | 1.44 |
| CAMK2D, construct: Full length (from UniProt Q13557) | 0.827 |
| CDKL1, construct: aa2-304 (from UniProt Q00532) | 1 |
| ACVR1B, construct: aa150-end (from UniProt P36896) | 0.975 |
| TSSK1B, construct: Full length (from UniProt Q9BXA7) | 0.635 |
| CSNK1A1L, construct: Full length (from UniProt Q8N752) | 0.897 |
| CSNK1G3, construct: Full length (from UniProt Q9Y6M4) | 0.86 |

same assay, conditions: H fixed; at +1

| Substance | relative phosphorylation |
| --- | --- |
| CIT, construct: aa1-449 (from UniProt O14578) | 1.24 |
| PAK1, construct: aa150-end (from UniProt Q13153) | 1.09 |
| CAMK2D, construct: Full length (from UniProt Q13557) | 0.719 |
| CDKL1, construct: aa2-304 (from UniProt Q00532) | 1.02 |
| ACVR1B, construct: aa150-end (from UniProt P36896) | 0.749 |
| TSSK1B, construct: Full length (from UniProt Q9BXA7) | 1.1 |
| CSNK1A1L, construct: Full length (from UniProt Q8N752) | 0.744 |
| CSNK1G3, construct: Full length (from UniProt Q9Y6M4) | 0.841 |

same assay, conditions: H fixed; at +2

| Substance | relative phosphorylation |
| --- | --- |
| CIT, construct: aa1-449 (from UniProt O14578) | 1.3 |
| PAK1, construct: aa150-end (from UniProt Q13153) | 1.6 |
| CAMK2D, construct: Full length (from UniProt Q13557) | 1.03 |
| CDKL1, construct: aa2-304 (from UniProt Q00532) | 1.22 |
| ACVR1B, construct: aa150-end (from UniProt P36896) | 0.809 |
| TSSK1B, construct: Full length (from UniProt Q9BXA7) | 1.99 |
| CSNK1A1L, construct: Full length (from UniProt Q8N752) | 0.98 |
| CSNK1G3, construct: Full length (from UniProt Q9Y6M4) | 1.44 |

same assay, conditions: H fixed; at +3

| Substance | relative phosphorylation |
| --- | --- |
| CIT, construct: aa1-449 (from UniProt O14578) | 1.67 |
| PAK1, construct: aa150-end (from UniProt Q13153) | 1.17 |
| CAMK2D, construct: Full length (from UniProt Q13557) | 1.17 |
| CDKL1, construct: aa2-304 (from UniProt Q00532) | 1.13 |
| ACVR1B, construct: aa150-end (from UniProt P36896) | 0.948 |
| TSSK1B, construct: Full length (from UniProt Q9BXA7) | 1.29 |
| CSNK1A1L, construct: Full length (from UniProt Q8N752) | 0.899 |
| CSNK1G3, construct: Full length (from UniProt Q9Y6M4) | 0.901 |

same assay, conditions: H fixed; at +4

| Substance | relative phosphorylation |
| --- | --- |
| CIT, construct: aa1-449 (from UniProt O14578) | 1.15 |
| PAK1, construct: aa150-end (from UniProt Q13153) | 0.97 |
| CAMK2D, construct: Full length (from UniProt Q13557) | 0.962 |
| CDKL1, construct: aa2-304 (from UniProt Q00532) | 1.07 |
| ACVR1B, construct: aa150-end (from UniProt P36896) | 0.968 |
| TSSK1B, construct: Full length (from UniProt Q9BXA7) | 0.768 |
| CSNK1A1L, construct: Full length (from UniProt Q8N752) | 0.858 |
| CSNK1G3, construct: Full length (from UniProt Q9Y6M4) | 0.991 |

same assay, conditions: H fixed; at -1

| Substance | relative phosphorylation |
| --- | --- |
| CIT, construct: aa1-449 (from UniProt O14578) | 1.75 |
| PAK1, construct: aa150-end (from UniProt Q13153) | 1.35 |
| CAMK2D, construct: Full length (from UniProt Q13557) | 1.08 |
| CDKL1, construct: aa2-304 (from UniProt Q00532) | 1.02 |
| ACVR1B, construct: aa150-end (from UniProt P36896) | 1.16 |
| TSSK1B, construct: Full length (from UniProt Q9BXA7) | 0.957 |
| CSNK1A1L, construct: Full length (from UniProt Q8N752) | 0.896 |
| CSNK1G3, construct: Full length (from UniProt Q9Y6M4) | 0.949 |

same assay, conditions: H fixed; at -2

| Substance | relative phosphorylation |
| --- | --- |
| CIT, construct: aa1-449 (from UniProt O14578) | 0.874 |
| PAK1, construct: aa150-end (from UniProt Q13153) | 1.37 |
| CAMK2D, construct: Full length (from UniProt Q13557) | 0.894 |
| CDKL1, construct: aa2-304 (from UniProt Q00532) | 0.727 |
| ACVR1B, construct: aa150-end (from UniProt P36896) | 0.606 |
| TSSK1B, construct: Full length (from UniProt Q9BXA7) | 0.981 |
| CSNK1A1L, construct: Full length (from UniProt Q8N752) | 0.748 |
| CSNK1G3, construct: Full length (from UniProt Q9Y6M4) | 0.716 |

same assay, conditions: H fixed; at -3

| Substance | relative phosphorylation |
| --- | --- |
| CIT, construct: aa1-449 (from UniProt O14578) | 0.797 |
| PAK1, construct: aa150-end (from UniProt Q13153) | 1.4 |
| CAMK2D, construct: Full length (from UniProt Q13557) | 1.05 |
| CDKL1, construct: aa2-304 (from UniProt Q00532) | 0.593 |
| ACVR1B, construct: aa150-end (from UniProt P36896) | 1.02 |
| TSSK1B, construct: Full length (from UniProt Q9BXA7) | 1.01 |
| CSNK1A1L, construct: Full length (from UniProt Q8N752) | 0.734 |
| CSNK1G3, construct: Full length (from UniProt Q9Y6M4) | 0.548 |

same assay, conditions: H fixed; at -4

| Substance | relative phosphorylation |
| --- | --- |
| CIT, construct: aa1-449 (from UniProt O14578) | 0.997 |
| PAK1, construct: aa150-end (from UniProt Q13153) | 1.14 |
| CAMK2D, construct: Full length (from UniProt Q13557) | 0.86 |
| CDKL1, construct: aa2-304 (from UniProt Q00532) | 0.926 |
| ACVR1B, construct: aa150-end (from UniProt P36896) | 0.997 |
| TSSK1B, construct: Full length (from UniProt Q9BXA7) | 1.23 |
| CSNK1A1L, construct: Full length (from UniProt Q8N752) | 0.933 |
| CSNK1G3, construct: Full length (from UniProt Q9Y6M4) | 0.898 |

same assay, conditions: H fixed; at -5

| Substance | relative phosphorylation |
| --- | --- |
| CIT, construct: aa1-449 (from UniProt O14578) | 0.804 |
| PAK1, construct: aa150-end (from UniProt Q13153) | 1.16 |
| CAMK2D, construct: Full length (from UniProt Q13557) | 0.922 |
